One test deals with T1, T-01 MB IgG1 LALAP I253A.
T1 construct: also called I253A+LALAP
The test is described as follows: BLI, His-tagged receptor on Ni-NTA. (In BLI a coated tip is dipped into the sample, and binding shifts an interference pattern.)

Test [1] has as its target T-01 MB IgG1 LALA P329G (LALAP). Briefly: BLI, His-tagged receptor on Ni-NTA.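 Further: octet RED96 biolayer interferometry of Fc-mutant Multabodies binding human FcγRI, FcγRIIa or FcγRIIb, with the His-tagged receptors captured on Ni-NTA biosensors.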
For the next test, the target named is T2, T-01 MB IgG1 WT.
T2 construct: also called T-01 MB with wild-type IgG1 Fc
The test is described as follows: BLI, His-tagged receptor on Ni-NTA.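 Further: octet RED96 biolayer interferometry of Fc-mutant Multabodies binding human FcγRI, FcγRIIa or FcγRIIb, with the His-tagged receptors captured on Ni-NTA biosensors.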

The next test concerns the target T-01 MB IgG1 I253A. The test is described as follows: BLI, His-tagged receptor on Ni-NTA.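 Further: octet RED96 biolayer interferometry of Fc-mutant Multabodies binding human FcγRI, FcγRIIa or FcγRIIb, with the His-tagged receptors captured on Ni-NTA biosensors.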
For the next test, the target named is T-01 MB IgG2 K288A P329G. Briefly: BLI, His-tagged receptor on Ni-NTA.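 Further: octet RED96 biolayer interferometry of Fc-mutant Multabodies binding human FcγRI, FcγRIIa or FcγRIIb, with the His-tagged receptors captured on Ni-NTA biosensors.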
In the next test the target is T3, T-01 MB.v2 IgG1 WT.
T3 construct: also called Multabody v2
The test is described as follows: BLI, His-tagged receptor on Ni-NTA.

In a further test the target is T-01 MB IgG1 I253V. Briefly: BLI, His-tagged receptor on Ni-NTA.
A further test concerns the target T-01 MB IgG1 P329G. Briefly: BLI, His-tagged receptor on Ni-NTA.
The target in another test is T-01 MB IgG1 K288A. The test is described as follows: BLI, His-tagged receptor on Ni-NTA.
In a further test the target is T4, T-01 MB IgG1 LALAP K288A.
T4 construct: also called K288A+LALAP
The test is described as follows: BLI, His-tagged receptor on Ni-NTA.

The next test concerns the target T-01 MB IgG2 WT. The test is described as follows: BLI, His-tagged receptor on Ni-NTA.
For test [2], the target named is T5, T-01 MB IgG1 L234A L235A (LALA).
T5 construct: also called T-01 MB IgG1 LALA
The test is described as follows: BLI, His-tagged receptor on Ni-NTA.

For a further test, the target named is T-01 MB IgG4 WT. Briefly: BLI, His-tagged receptor on Ni-NTA.
The target of test [3] is T6, T-01 MB.v2 IgG1 M428L N434S (LS).
T6 construct: also called T-01 MB.v2 IgG1 LS
Briefly: BLI, His-tagged receptor on Ni-NTA.

The target of a further test is soluble CD4 (UniProt P01730 26-390). Briefly: BLI, His-tagged target on Ni-NTA.
The target in the next test is T7, BG5050 SOSIP.664 D368R (HIV-1).
T7 construct: also called BG505 SOSIP D368R; BG505 SOSIP.664_D368R trimer
Briefly: BLI, His-tagged target on Ni-NTA.

By Kd is commonly meant a measure of binding affinity in units of concentration. What is called koff is the first-order rate constant of dissociation. Low readings indicate a long-lived complex, high ones a short-lived complex. Usually kon stands for the second-order rate constant of association. Read a low kon as slower complex formation.

B1: human Fcγ receptor I (hFcγRI) (receptor, UniProt P12314 16-288, looked up)
chain: QVDTTKAVITLQPPWVSVFQEETVTLHCEVLHLPGSSSTQWFLNGTATQTSTPSYRITSASVNDSGEYRCQRGLSGRSDPIQLEIHRGWLLLQVSSRVFTEGEPLALRCHAWKDKLVYNVLYYRNGKAFKFFHWNSNLTILKTNISHNGTYHCSGMGKHRYTSAGISVTVKELFPAPVLNASVTSPLLEGNLVTLSCETKLLLQRPGLQLYFSFYMGSKTLRGRNTSSEYQILTARREDSGLYWCEAATEDGNVLKRSPELELQVLGLQLPTP
In the case of B1, the Kd with T-01 MB IgG1 LALAP I253A is 0.768 nM; in [1], 0.684 nM; in the test with T-01 MB IgG1 WT, < 1 pM; with T-01 MB IgG1 I253A it was < 1 pM; with T-01 MB IgG2 K288A P329G, 0.132 nM; in the test with T-01 MB.v2 IgG1 WT it was < 1 pM. Besides, the Kd was < 1 pM with T-01 MB IgG1 I253V; 0.0375 nM with T-01 MB IgG1 P329G; < 1 pM with T-01 MB IgG1 K288A; 0.269 nM in the test with T-01 MB IgG1 LALAP K288A; 2.03 nM with T-01 MB IgG2 WT; 0.0297 nM in [2]. Also, the Kd was < 0.001 nM in the test with T-01 MB IgG4 WT and < 1 pM in test [3]. Also, the koff in the test with T-01 MB IgG1 LALAP I253A is 0.000656 s⁻¹; in [1], 0.000437 s⁻¹; in the test with T-01 MB IgG1 WT it was < 1e-07 s⁻¹; with T-01 MB IgG1 I253A it was < 1e-07 s⁻¹; in the test with T-01 MB IgG2 K288A P329G, 9.13e-05 s⁻¹; in the test with T-01 MB.v2 IgG1 WT it was < 1e-07 s⁻¹. Also, the koff was < 1e-07 s⁻¹ with T-01 MB IgG1 I253V; 2.49e-05 s⁻¹ with T-01 MB IgG1 P329G; < 1e-07 s⁻¹ in the test with T-01 MB IgG1 K288A; 0.000161 s⁻¹ in the test with T-01 MB IgG1 LALAP K288A; 0.00154 s⁻¹ in the test with T-01 MB IgG2 WT; 1.66e-05 s⁻¹ in test [2]. In addition, the koff (with T-01 MB IgG4 WT; in test [3]) was < 1e-07 s⁻¹ throughout. In addition, the kon with T-01 MB IgG1 LALAP I253A came out at 853000 M⁻¹ s⁻¹; in [1] it was 639000 M⁻¹ s⁻¹; with T-01 MB IgG1 WT, 672000 M⁻¹ s⁻¹; with T-01 MB IgG1 I253A, 605000 M⁻¹ s⁻¹; with T-01 MB IgG2 K288A P329G, 694000 M⁻¹ s⁻¹; in the test with T-01 MB.v2 IgG1 WT it was 312000 M⁻¹ s⁻¹. In addition, the kon with T-01 MB IgG1 I253V was 756000 M⁻¹ s⁻¹; in the test with T-01 MB IgG1 P329G it was 665000 M⁻¹ s⁻¹; with T-01 MB IgG1 K288A, 578000 M⁻¹ s⁻¹; in the test with T-01 MB IgG1 LALAP K288A, 601000 M⁻¹ s⁻¹; with T-01 MB IgG2 WT, 758000 M⁻¹ s⁻¹; in [2], 558000 M⁻¹ s⁻¹. The results for the kon (with T-01 MB IgG4 WT; in test [3]) were 835000 M⁻¹ s⁻¹ and 431000 M⁻¹ s⁻¹, respectively.

B2: human FcγRIIb (hFcγRIIb) (receptor, UniProt P31994 43-217, looked up)
chain: TPAAPPKAVLKLEPQWINVLQEDSVTLTCRGTHSPESDSIQWFHNGNLIPTHTQPSYRFKANNNDSGEYTCQTGQTSLSDPVHLTVLSEWLVLQTPHLEFQEGETIVLRCHSWKDKPLVKVTFFQNGKSKKFSRSDPNFSIPQANHSHSGDYHCTGNIGYTLYSSKPVTITVQAP
On to B2, for which the binding result (in the test with T-01 MB IgG1 LALAP I253A; in [1]; in the test with T-01 MB IgG2 K288A P329G; with T-01 MB.v2 IgG1 WT; with T-01 MB IgG1 P329G; with T-01 MB IgG1 LALAP K288A) was “no binding (tested: serial dilutions 20-0.65 nM)” each time. Moreover, in [3], the binding result is on record as “no binding (tested: serial dilutions 20-0.65 nM)”. The Kd with T-01 MB IgG1 WT is < 1 pM; with T-01 MB IgG1 I253A it was < 1 pM; in the test with T-01 MB IgG1 I253V, < 1 pM; in the test with T-01 MB IgG1 K288A, < 1 pM; with T-01 MB IgG2 WT it was 1.61 nM; in test [2] it was 0.607 nM. In the test with T-01 MB IgG4 WT, this molecule yielded a Kd of 0.223 nM. For the same molecule, the koff is < 1e-07 s⁻¹ with T-01 MB IgG1 WT; < 1e-07 s⁻¹ with T-01 MB IgG1 I253A; < 1e-07 s⁻¹ with T-01 MB IgG1 I253V; < 1e-07 s⁻¹ with T-01 MB IgG1 K288A; 0.00103 s⁻¹ with T-01 MB IgG2 WT; 0.000394 s⁻¹ in test [2]. The molecule further yielded a koff in the test with T-01 MB IgG4 WT of 0.000305 s⁻¹. Also, the kon with T-01 MB IgG1 WT came to 1.19e+06 M⁻¹ s⁻¹; with T-01 MB IgG1 I253A, 1.39e+06 M⁻¹ s⁻¹; with T-01 MB IgG1 I253V it was 1.39e+06 M⁻¹ s⁻¹; in the test with T-01 MB IgG1 K288A, 1.25e+06 M⁻¹ s⁻¹; with T-01 MB IgG2 WT, 637000 M⁻¹ s⁻¹; in [2] it was 649000 M⁻¹ s⁻¹. The molecule further gave a kon with T-01 MB IgG4 WT of 1.37e+06 M⁻¹ s⁻¹.

B3: human FcγRIIa (hFcγRIIa) (receptor, UniProt P12318 34-217, looked up)
chain: QAAAPPKAVLKLEPPWINVLQEDSVTLTCQGARSPESDSIQWFHNGNLIPTHTQPSYRFKANNNDSGEYTCQTGQTSLSDPVHLTVLSEWLVLQTPHLEFQEGETIMLRCHSWKDKPLVKVTFFQNGKSQKFSHLDPTFSIPQANHSHSGDYHCTGNIGYTLFSSKPVTITVQVPSMGSSSPMG
B3: the binding result (in the test with T-01 MB IgG1 LALAP I253A; in test [1]; with T-01 MB IgG2 K288A P329G; with T-01 MB.v2 IgG1 WT; with T-01 MB IgG1 LALAP K288A; in [3]) was “no binding (tested: serial dilutions 20-0.65 nM)” throughout. For the same molecule, the Kd with T-01 MB IgG1 WT was < 1 pM; with T-01 MB IgG1 I253A it was < 1 pM; with T-01 MB IgG1 I253V, < 1 pM; with T-01 MB IgG1 P329G, 0.249 nM; with T-01 MB IgG1 K288A it was < 1 pM; with T-01 MB IgG2 WT, 0.606 nM. For the same molecule, the values for the Kd (in test [2]; with T-01 MB IgG4 WT) were 0.208 nM and 0.391 nM, respectively. In addition, the koff was < 1e-07 s⁻¹ with T-01 MB IgG1 WT; < 1e-07 s⁻¹ with T-01 MB IgG1 I253A; < 1e-07 s⁻¹ with T-01 MB IgG1 I253V; 5.53e-05 s⁻¹ in the test with T-01 MB IgG1 P329G; < 1e-07 s⁻¹ in the test with T-01 MB IgG1 K288A; 0.000263 s⁻¹ in the test with T-01 MB IgG2 WT. The koff was 0.000121 s⁻¹ in test [2] and 0.000445 s⁻¹ in the test with T-01 MB IgG4 WT. The kon in the test with T-01 MB IgG1 WT was found to be 963000 M⁻¹ s⁻¹; with T-01 MB IgG1 I253A it was 763000 M⁻¹ s⁻¹; with T-01 MB IgG1 I253V it was 1.09e+06 M⁻¹ s⁻¹; with T-01 MB IgG1 P329G, 222000 M⁻¹ s⁻¹; with T-01 MB IgG1 K288A it was 1.07e+06 M⁻¹ s⁻¹; with T-01 MB IgG2 WT, 433000 M⁻¹ s⁻¹. Besides, the kon was found to be 581000 M⁻¹ s⁻¹ in [2] and 1.14e+06 M⁻¹ s⁻¹ with T-01 MB IgG4 WT.

B4: N49P7 IgG1 (antibody, V domains shown)
VH: ADLVQSGAVVKKPGDSVRISCEAQGYRFPDYIIHWIRRAPGQGPEWMGWMNPMGGQVNIPWKFQGRVSMTRDTSIETAFLDLRGLKSDDTAVYYCVRDRSNGSGKRFESSNWFLDLWGRGTAVTIQS
VL: QSALTQPRSVSASPGQSVTISCTGTHNLVSWCQHQPGRAPKLLIYDFNKRPSGVPDRFSGSGSGGTASLTITGLQDDDDAEYFCWAYEAFGGGTKLTVLG
B4: the binding result with soluble CD4 was “no binding”.

B5: PGDM1400 IgG1 (antibody, V domains shown)
VH: QAQLVQSGPEVRKPGTSVKVSCKAPGNTLKTYDLHWVRSVPGQGLQWMGWISHEGDKKVIVERFKAKVTIDWDRSTNTAYLQLSGLTSGDTAVYYCAKGSKHRLRDYALYDDDGALNWAVDVDYLSNLEFWGQGTAVTVSS
VL: DFVLTQSPHSLSVTPGESASISCKSSHSLIHGDRNNYLAWYVQKPGRSPQLLIYLASSRASGVPDRFSGSGSDKDFTLKISRVETEDVGTYYCMQGRESPWTFGQGTKVDIKR
Consider B5, for which, in the test with BG5050 SOSIP.664 D368R, the Kd amounted to 38 nM, the koff was 0.000262 s⁻¹ and the kon is 6900 M⁻¹ s⁻¹. In addition, in the test with soluble CD4, the binding result is listed as “no binding”.

B6: 10E8v4 IgG1 (antibody, V domains shown)
VH: EVRLVESGGGLVKPGGSLRLSCSASGFDFDNAWMTWVRQPPGKGLEWVGRITGPGEGWSVDYAESVKGRFTISRDNTKNTLYLEMNNVRTEDTGYYFCARTGKYYDFWSGYPPGEEYFQDWGQGTLVIVSS
VL: SELTQDPAVSVALKQTVTITCRGDSLRSHYASWYQKKPGQAPVLLFYGKNNRPSGIPDRFSGSASGNRASLTITGAQAEDEADYYCSSRDKSGSRLSVFGGGTKLTVLS
As to B6, the binding result in the test with soluble CD4 is listed as “no binding”.

These data come from patent publication US20250276070A1 (HOSPITAL FOR SICK CHILDREN, published 2025).
